Experimental findings from US20140341881A1 (DERMADIS, published 2014) are described below.

For test [1], the target named is T1, human chymotrypsin (Chtr) (human, UniProt P17538 19-263). Nature of the test: residual enzyme activity against [I]o/[E]o, fluorogenic substrate. The protocol: The stoichiometry of inhibition (SI) values were determined for the inhibition of rACTWT and its variants with hK2 and different other enzymes. An initial test was made with a molar excess of rACT (100 fold) over hK2, PSA, hK1, chymotrypsin (Chtr), plasma kallikrein (PK), urokinase (uPA) and human neutrophile elastase (HNE) enzymes. The reaction was carried out for 30 min at 25° C. (90 min at 37° C. for PSA) in reaction buffer (50 mM Tris pH 7.5, 150 mM NaCl, 0,05% Triton X-100, 0.01% BSA) and residual enzyme activity was measured by adding fluorescent substrates (Z-Phe-Arg-AMC for hK1, hK2 and PK, Suc-Ala-Ala-Pro-Phe-AMC for Chtr, Z-Gly-Gly-Arg-AMC for uPA, MeOSuc-Ala-Ala-Pro-Val-AMC for HNE, and CFP-TFRSA-YFP (TFRSA SEQ ID NO:137) for PSA). Activity of enzyme in presence of inhibitors was compared to uninhibited reaction. For reactions where an inhibition was observed, SI was determined by incubating different concentrations of recombinant serpins. Using linear regression analysis of fractional activity (velocity of inhibited enzyme reaction/velocity of uninhibited enzyme reaction) versus the molar ratio of the inhibitor to enzyme ([Iₒ]/[Eₒ]), the stoichiometry of inhibition, corresponding to the abscissa intercept, was obtained.

For a further test, the target named is human kallikrein hK1 (human, UniProt P06870 25-262). Nature of the test: cell-based or functional assay.
For test [2], the target named is T2, human kallikrein 2 (hK2) (human, UniProt P20151 25-261). Nature of the test: cell-based or functional assay.
The target of test [3] is T1, human chymotrypsin (Chtr). Nature of the test: cell-based or functional assay.
Test [4] addresses T3, prostate specific antigen (PSA, hK3) (human, UniProt P07288 25-261). Nature of the test: cell-based or functional assay.
The target of test [5] is T4, urokinase plasminogen activator (uPA) (UniProt P00749 21-431, limits assumed). Nature of the test: cell-based or functional assay.
The target of test [6] is thrombin. Nature of the test: cell-based or functional assay.
The next test deals with human kallikrein 6 (hK6) (human, UniProt Q92876 22-244). Nature of the test: cell-based or functional assay.
The target of test [7] is T2, human kallikrein 2 (hK2). Nature of the test: cell-based or functional assay. The source holds these as a separate data set.
Another test concerns the target T5, human kallikrein 5 (hK5) (human, UniProt Q9Y337 67-293, limits assumed).
T5 sequence (looked up): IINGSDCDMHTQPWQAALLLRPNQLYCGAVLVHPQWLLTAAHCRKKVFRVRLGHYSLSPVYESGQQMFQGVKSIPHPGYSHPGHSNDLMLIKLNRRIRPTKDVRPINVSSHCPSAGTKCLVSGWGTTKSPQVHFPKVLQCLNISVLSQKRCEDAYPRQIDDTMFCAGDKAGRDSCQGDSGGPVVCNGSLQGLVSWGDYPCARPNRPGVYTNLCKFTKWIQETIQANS
Nature of the test: cell-based or functional assay.

The target of test [8] is T6, human kallikrein 13 (hK13) (human, UniProt Q9UKR3 26-277, limits assumed).
T6 sequence (looked up): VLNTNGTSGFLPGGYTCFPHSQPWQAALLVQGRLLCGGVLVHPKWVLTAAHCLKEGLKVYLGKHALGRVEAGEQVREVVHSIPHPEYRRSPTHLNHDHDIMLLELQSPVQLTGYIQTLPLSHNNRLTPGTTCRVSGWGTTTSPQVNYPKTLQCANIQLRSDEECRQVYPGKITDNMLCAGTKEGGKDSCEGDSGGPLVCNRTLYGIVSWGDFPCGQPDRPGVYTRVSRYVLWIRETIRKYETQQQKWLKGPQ
Nature of the test: cell-based or functional assay.

Test [9] concerns the target T1, human chymotrypsin (Chtr). As to the kind of experiment: cell-based or functional assay. The source holds these as a separate data set.
Test [10] has as its target T3, prostate specific antigen (PSA, hK3). Nature of the test: cell-based or functional assay. The source holds these as a separate data set.
In another test the target is T7, human kallikrein 8 (hK8) (human, UniProt O60259 33-260).
T7 sequence (looked up): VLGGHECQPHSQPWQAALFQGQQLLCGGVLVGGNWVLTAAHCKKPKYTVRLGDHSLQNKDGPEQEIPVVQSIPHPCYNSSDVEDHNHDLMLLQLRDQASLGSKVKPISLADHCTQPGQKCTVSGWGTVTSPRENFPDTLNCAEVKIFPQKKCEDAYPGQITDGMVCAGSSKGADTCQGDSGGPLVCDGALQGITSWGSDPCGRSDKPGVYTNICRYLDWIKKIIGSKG
As to the kind of experiment: cell-based or functional assay.

The target of test [11] is thrombin. Nature of the test: cell-based or functional assay. The source holds these as a separate data set.
The target in test [12] is T1, human chymotrypsin (Chtr). As to the kind of experiment: cell-based or functional assay. The source holds these as a separate data set.
Test [13] deals with T4, urokinase plasminogen activator (uPA). As to the kind of experiment: cell-based or functional assay. This is another data set of the same source.
For test [14], the target named is T8, human kallikrein 14 (hK14) (human, UniProt Q9P0G3 25-251, limits assumed).
T8 construct: range counted on GenBank AAK48524 (printed), which may differ from the UniProt numbering; also called recombinant hK14
T8 sequence (looked up): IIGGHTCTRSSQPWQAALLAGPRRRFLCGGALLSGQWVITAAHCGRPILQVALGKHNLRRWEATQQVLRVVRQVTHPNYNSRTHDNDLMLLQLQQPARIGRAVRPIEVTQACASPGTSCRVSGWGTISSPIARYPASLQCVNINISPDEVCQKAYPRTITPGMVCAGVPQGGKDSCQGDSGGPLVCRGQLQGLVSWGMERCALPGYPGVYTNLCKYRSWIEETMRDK
Nature of the test: residual hK14 activity against [I0]/[E0]. In outline:
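hK14 preincubated 4 hours at 37° C with varying inhibitor concentrations in 50 mM Tris pH 7.5, 150 mM NaCl, 0.05% Triton X-100, 0.01% BSA; residual activity read with Boc-Val-Pro-Arg-AMC (ex 340/em 485 nm). SI taken as abscissa intercept of vi/v₀ versus [I₀]/[E₀] linear regression.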

For test [15], the target named is T8, human kallikrein 14 (hK14). Nature of the test: residual hK14 activity after 4 h at 37 C against [I0]/[E0]. The protocol: SI values of rAAT, rACT, and their variants were determined with hK14 incubating the protease with varying concentrations of inhibitor. After an incubation of 4 hours at 37° C. in reaction buffer (50 mM Tris, pH 7.5, 150 mM NaCl, 0.05% Triton X-100, 0.01% BSA), the residual activity was detected by the addition of fluorescent substrate (Boc-Val-Pro-Arg-AMC). Fluorescence was measured with excitation at 340 nm (±15) and emission at 485 nm (±10) in black 96 well plates using a microplate fluorescence reader FLₓ800 (Bio-Tek Instruments, Inc.). The SI value corresponds to the abscissa intercept of the linear regression analysis of fractional velocity (velocity of inhibited enzyme reaction (vi)/velocity of uninhibited enzyme reaction (v₀)) vs. the molar ratio of the inhibitor to enzyme ([I₀]/[E₀]).

Test [16] addresses T9, human neutrophil elastase (HNE) (human, UniProt P08246 30-247, limits assumed).
T9 sequence (looked up): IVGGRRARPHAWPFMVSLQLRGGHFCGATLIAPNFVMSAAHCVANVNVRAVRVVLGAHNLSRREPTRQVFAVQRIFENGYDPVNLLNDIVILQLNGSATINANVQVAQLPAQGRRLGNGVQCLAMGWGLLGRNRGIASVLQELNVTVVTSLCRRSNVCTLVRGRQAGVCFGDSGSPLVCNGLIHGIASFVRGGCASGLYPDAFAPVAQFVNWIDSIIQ
Nature of the test: cell-based or functional assay.

Test [17] has as its target T8, human kallikrein 14 (hK14). Nature of the test: cell-based or functional assay.
The target in test [18] is T10, human plasma kallikrein (PK) (human, UniProt P03952 20-638). As to the kind of experiment: cell-based or functional assay.
Test [19] concerns the target T9, human neutrophil elastase (HNE). Nature of the test: cell-based or functional assay. The source holds these as a separate data set.
Test [20] addresses T8, human kallikrein 14 (hK14). Nature of the test: cell-based or functional assay. The source holds these as a separate data set.
Test [21] concerns the target T10, human plasma kallikrein (PK). As to the kind of experiment: cell-based or functional assay. The source holds these as a separate data set.

T1 sequence (P17538 19-263): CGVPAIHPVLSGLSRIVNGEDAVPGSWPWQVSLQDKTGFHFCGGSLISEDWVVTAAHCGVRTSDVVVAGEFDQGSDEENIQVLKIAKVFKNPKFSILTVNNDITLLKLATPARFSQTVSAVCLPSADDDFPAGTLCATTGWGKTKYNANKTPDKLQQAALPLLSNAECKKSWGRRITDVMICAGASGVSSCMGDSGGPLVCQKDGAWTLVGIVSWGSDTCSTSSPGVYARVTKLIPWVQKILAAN
T10 sequence (P03952 20-638 limits assumed): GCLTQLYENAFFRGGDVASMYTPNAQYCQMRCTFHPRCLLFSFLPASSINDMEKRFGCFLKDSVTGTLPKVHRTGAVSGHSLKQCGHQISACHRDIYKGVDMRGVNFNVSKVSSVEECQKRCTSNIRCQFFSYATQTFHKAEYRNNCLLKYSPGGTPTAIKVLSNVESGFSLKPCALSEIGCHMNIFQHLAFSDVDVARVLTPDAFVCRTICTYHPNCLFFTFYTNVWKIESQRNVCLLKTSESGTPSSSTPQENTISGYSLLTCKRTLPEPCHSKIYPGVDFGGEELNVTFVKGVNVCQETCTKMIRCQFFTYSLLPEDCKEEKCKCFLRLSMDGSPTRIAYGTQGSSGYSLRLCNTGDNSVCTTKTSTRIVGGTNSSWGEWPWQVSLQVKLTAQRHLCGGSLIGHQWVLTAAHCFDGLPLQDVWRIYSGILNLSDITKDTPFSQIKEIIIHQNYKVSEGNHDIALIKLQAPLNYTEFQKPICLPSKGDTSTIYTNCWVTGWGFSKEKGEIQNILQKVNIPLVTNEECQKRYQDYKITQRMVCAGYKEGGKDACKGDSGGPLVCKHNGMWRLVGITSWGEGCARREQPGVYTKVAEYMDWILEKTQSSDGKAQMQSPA

B1: rACTWT (recombinant wild type alpha-1-antichymotrypsin) (other, human)
chain: HHHHHHHPNSPLDEENLTQENQDRGTHVDLGLASANVDFAFSLYKQLVLKAPDKNVIFSPLSISTALAFLSLGAHNTTLTEILKGLKFNLTETSEAEIHQSFQHLLRTLNQSSDELQLSMGNAMFVKEQLSLLDRFTEDAKRLYGSEAFATDFQDSAAAKKLINDYVKNGTRGKITDLIKDLDSQTMMVLVNYIFFKAKWEMPFDPQDTHQSRFYLSKKKWVMVPMMSLHHLTIPYFRDEELSCTVVELKYTGNASALFILPDQDKMEEVEAMLLPETLKRWRDSLEFREIGELYLPKFSISRDYNLNDILLQLGIEEAFTSKADLSGITGARNLAVSQVVHKAVLDVFEEGTEASAATAVKITLLSALVETRTIVRFNRPFLMIIVPTDTQNIFFMSKVTNPKQA
notes: also called wild type rACT; wild type ACT
The % Inhibition is how much of the control response was suppressed. Take B1: in [1], the “SI (stoichiometry of inhibition)” value stood at 2. Moreover, the INHIBITION % with human kallikrein hK1 was 0%; with human kallikrein 2 (hK2) [2], 0%; in [3] it was 100%; in [4] it was 80%; in test [5], 0%. Moreover, the Percentage inhibition was found to be 18% with thrombin [6]; 24% in the test with human kallikrein 6 (hK6); 0% with human kallikrein 2 (hK2) [7]; 7% in the test with human kallikrein 5 (hK5); 0% in test [8]; 100% in test [9]. Besides, the Percentage inhibition in [10] is 100%; with human kallikrein 8 (hK8), 0%. The “% Inhibition” value with thrombin [11] was 18%; in [12], 100%; in [13] it was 0%.

B2: AATG9 (other, human)
chain: HHHHHHEDPQGDAAQKTDTSHHDQDHPTFNKITPNLAEFAFSLYRQLAHQSNSTNIFFSPVSIATAFAMLSLGTKADTHDEILEGLNFNLTEIPEAQIHEGFQELLRTLNQPDSQLQLTTGNGLFLSEGLKLVDKFLEDVKKLYHSEAFTVNFGDTEEAKKQINDYVEKGTQGKIVDLVKELDRDTVFALVNYIFFKGKWERPFEVKDTEEEDFHVDQVTTVKVPMMKRLGMFNIQHCKKLSSWVLLMKYLGNATAIFFLPDEGKLQHLENELTHDIITKFLENEDRRSASLHLPKLSITGTYDLKSVLGQLGITKVFSNGADLSGVTEEAPLKLSKAVHKAVLTIDEKGTEAAGAMFLETVDYAIPPEVKFNKPFVFLMIEQNTKSPLFMGKVVNPTQK
notes: mature; also called rAATG9
As for B2, the “SI (stoichiometry of inhibition)” value in [14] and in [15] was 1.2 in each case. Besides, the Percentage inhibition stood at 0% with thrombin [6]; 0% in test [16]; 0% in the test with human kallikrein 6 (hK6); 0% with human kallikrein 2 (hK2) [7]; 30% in the test with human kallikrein 5 (hK5); 0% in test [8]. Also, the Percentage inhibition in [9] came to 100%; in [17] it was 100%; in [10] it was 0%; in test [18], 0%; in the test with human kallikrein 8 (hK8), 0%. The “% Inhibition” value with thrombin [11] amounted to 0%; in test [19] it was 0%; in test [12] it was 100%; in test [20], 100%; in test [21] it was 0%; in [13], 0%.
